doi:10.1101/2024.12.28.630591 (bioRxiv, 2024)
Substitutions are numbered along the chain they refer to. Names may count otherwise. Blank lines part the entries; values can stand above or below the binder they belong to.

Key:
Assay in all cases: FRET or BRET
Gα13 R279A = target: T1, Gα13 R279A (human, UniProt Q14344 1-377, R279A)
T1 sequence (looked up): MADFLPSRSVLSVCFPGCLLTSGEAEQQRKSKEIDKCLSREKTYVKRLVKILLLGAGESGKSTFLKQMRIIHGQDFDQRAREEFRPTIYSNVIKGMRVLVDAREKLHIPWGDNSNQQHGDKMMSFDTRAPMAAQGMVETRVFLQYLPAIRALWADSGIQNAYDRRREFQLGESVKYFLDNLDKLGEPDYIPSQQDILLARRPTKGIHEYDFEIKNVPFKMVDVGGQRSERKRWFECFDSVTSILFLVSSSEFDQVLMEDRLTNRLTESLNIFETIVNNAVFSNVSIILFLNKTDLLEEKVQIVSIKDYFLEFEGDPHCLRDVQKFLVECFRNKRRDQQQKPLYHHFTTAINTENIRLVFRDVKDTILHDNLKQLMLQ

Gα13 K94E/R97E = target: T2, Gα13 K94E/R97E (human, UniProt Q14344 1-377, K94E | R97E)
T2 sequence (looked up): T1 sequence (looked up) with K94E, R97E, A279R

Gα13 R201V (human) = Gα13 R201V (human) (UniProt Q14344)
[1] = target: Gα13 with mutations in three helical domain residues
Gα13 P202A = target: T3, Gα13 P202A (human, UniProt Q14344 1-377, P202A)
T3 sequence (looked up): T1 sequence (looked up) with P202A, A279R

Gα13 = target: T4, Gα13 (human, UniProt Q14344 1-377)
T4 sequence: T1 sequence (looked up) with A279R

Gα12 = target: T5, Gα12 (human, UniProt Q03113 1-381)
T5 sequence: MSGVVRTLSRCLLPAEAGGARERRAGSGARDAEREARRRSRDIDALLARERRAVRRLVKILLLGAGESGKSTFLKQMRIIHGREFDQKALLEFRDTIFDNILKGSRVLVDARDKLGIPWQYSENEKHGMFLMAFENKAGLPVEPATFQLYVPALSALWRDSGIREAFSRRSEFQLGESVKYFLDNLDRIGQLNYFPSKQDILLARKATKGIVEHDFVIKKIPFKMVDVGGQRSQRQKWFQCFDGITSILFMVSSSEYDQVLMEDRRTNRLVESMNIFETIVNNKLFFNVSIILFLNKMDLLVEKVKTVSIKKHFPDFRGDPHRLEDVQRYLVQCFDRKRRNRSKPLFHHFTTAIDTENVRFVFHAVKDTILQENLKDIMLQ

- percent reduction of recruitment against WT Gα13 (Gα13 R279A): 50%
- percent reduction of recruitment against WT Gα13 (Gα13 K94E/R97E): 71%
B1: PDZ RhoGEF-RlucII sensor (domain or fragment, UniProt O15085 281-483, looked up)
chain: QGVDQSPKPLIIGPEEDYDPGYFNNESDIIFQDLEKLKSRPAHLGVFLRYIFSQADPSPLLFYLCAEVYQQASPKDSRSLGKDIWNIFLEKNAPLRVKIPEMLQAEIDSRLRNSEDARGVLCEAQEAAMPEIQEQIHDYRTKRTLGLGSLYGENDLLDLDGDPLRERQVAEKQLAALGDILSKYEEDRSAPMDFALNTYMSHA

- percent reduction of recruitment against WT Gα13 (Gα13 R201V (human)): 26%
- percent reduction of recruitment against WT Gα13 [1]: 27 to 81%
- percent reduction of recruitment against WT Gα13 (Gα13 P202A): 37%
- percent reduction of recruitment against WT Gα13 (Gα13 R279A): 50%
- percent reduction of recruitment against WT Gα13 (Gα13 K94E/R97E): 81%
B2: p115 RhoGEF (21-244)-RlucII (domain or fragment, UniProt Q92888 21-244, looked up)
chain: VSIIGAEDEDFENELETNSEEQNSQFQSLEQVKRRPAHLMALLQHVALQFEPGPLLCCLHADMLGSLGPKEAKKAFLDFYHSFLEKTAVLRVPVPPNVAFELDRTRADLISEDVQRRFVQEVVQSQQVAVGRQLEDFRSKRLMGMTPWEQELAQLEAWVGRDRASYEARERHVAERLLMHLEEMQHTISTDEEKSAAVVNAIGLYMRHLGVRTKSGDKKSGRNF

- percent reduction of recruitment against WT p115RhoGEF sensor (Gα13): ~50%
- percent reduction of recruitment against WT p115RhoGEF sensor (Gα12): ~50%
B3: p115 RhoGEF (21-244)-RlucII E27A (domain or fragment)
chain: B2 chain with E7A

- percent reduction of recruitment against WT p115RhoGEF sensor (Gα13): ~50%
- percent reduction of recruitment against WT p115RhoGEF sensor (Gα12): ~50%
B4: p115 RhoGEF (21-244)-RlucII I23A (domain or fragment)
chain: B2 chain with I3A

- percent reduction of recruitment against WT p115RhoGEF sensor (Gα13): ~50%
- percent reduction of recruitment against WT p115RhoGEF sensor (Gα12): ~50%
B5: p115 RhoGEF (21-244)-RlucII I23F (domain or fragment)
chain: B2 chain with I3F
